Measured values from article PMC12409452.

Target: mitochondrial electron transport chain complex III2 (UniProt P22695)
Experiment: BN-PAGE immunoblot (Ndufb8), band quantification
Settings: A549 cells transfected with Ndufs1 plasmid; respirasome band CIn+CIIIn+CIVn normalised to free CI band; n = 3, mean ± SD; parent: est. 0.04; read off a plot

Chain of UniProt P22695 (P22695 whole entry, looked up, one chain of several): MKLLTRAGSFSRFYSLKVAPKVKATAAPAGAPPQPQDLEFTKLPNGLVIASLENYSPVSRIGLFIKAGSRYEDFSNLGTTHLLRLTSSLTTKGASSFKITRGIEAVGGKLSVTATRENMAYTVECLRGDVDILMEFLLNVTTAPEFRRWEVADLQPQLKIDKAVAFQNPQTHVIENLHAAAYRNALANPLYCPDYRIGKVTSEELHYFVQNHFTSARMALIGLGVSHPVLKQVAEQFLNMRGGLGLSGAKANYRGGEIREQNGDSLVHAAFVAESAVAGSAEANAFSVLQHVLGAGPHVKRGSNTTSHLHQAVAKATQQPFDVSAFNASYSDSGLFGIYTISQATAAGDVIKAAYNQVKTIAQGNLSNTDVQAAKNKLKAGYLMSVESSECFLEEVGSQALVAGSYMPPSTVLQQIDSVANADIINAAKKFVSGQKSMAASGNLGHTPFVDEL

Substance | other: Relative Respirasome level (vs CI)
mitochondrial electron transport chain complex I with wild-type Ndufs1 (from UniProt P28331;O95169) C367D | 0.15
mitochondrial electron transport chain complex I with wild-type Ndufs1 (from UniProt P28331;O95169) C564D | 1.2
mitochondrial electron transport chain complex I with wild-type Ndufs1 (from UniProt P28331;O95169) C727D | 1
mitochondrial electron transport chain complex I with wild-type Ndufs1 (from UniProt P28331;O95169) C75D | 1.9
mitochondrial electron transport chain complex I with wild-type Ndufs1 (from UniProt P28331;O95169) C78D | 1.4

The next lines start with the values.

other: Relative Respirasome level (vs CI) | Substance
1.1 | mitochondrial electron transport chain complex I with wild-type Ndufs1 (from UniProt P28331;O95169) C554D
1.9 | mitochondrial electron transport chain complex I with wild-type Ndufs1 (from UniProt P28331;O95169) C64D
1.5 | mitochondrial electron transport chain complex I with wild-type Ndufs1 (from UniProt P28331;O95169) C92D
